Literature values in paper PMC6470598.

Target: CTLA-4 (Homo sapiens) (UniProt P16410)
UniProt P16410, sequence (P16410 36-161): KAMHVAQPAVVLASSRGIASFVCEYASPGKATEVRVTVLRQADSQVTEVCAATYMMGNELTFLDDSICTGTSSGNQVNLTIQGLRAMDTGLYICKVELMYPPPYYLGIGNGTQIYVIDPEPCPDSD

Kd: 5.9 nM
Substance: tremelimumab
